Experimental data: publication PMC7504508
Like-named read-outs stand apart in the source and are kept apart here.

What was measured:
[1] = target: GST-Sumo fusion protein of the perch Connexin 35 C-terminal domain (amino acids 251-304), wild type (perch); experiment: SPR; GST-Sumo-Cx35 fusion proteins captured by immobilised anti-GST antibodies on a CM5 chip (Biacore 2000); calmodulin as analyte, 3 nM to 30 µM; GST-Sumo reference flowcell subtracted; 1 mM free Ca2+, 0.5 mM free Mg2+, 140 mM KCl, 10 mM MOPS pH 7.2, 0.05% Tween 20; first order ligand binding …
[2] = target: GST-Sumo fusion protein of the perch Connexin 35 C-terminal domain (amino acids 251-304), wild type (perch)
[3] = target: GST-Sumo fusion protein of the perch Cx35 C-terminal domain (251-304) R268A (perch); experiment: SPR; GST-Sumo-Cx35 fusion proteins captured by immobilised anti-GST antibodies on a CM5 chip (Biacore 2000); calmodulin as analyte, 3 nM to 30 µM; GST-Sumo reference flowcell subtracted; 1 mM free Ca2+, 0.5 mM free Mg2+, 140 mM KCl, 10 mM MOPS pH 7.2, 0.05% Tween 20; first order ligand binding …
[4] = target: GST-Sumo fusion protein of the perch Cx35 C-terminal domain (251-304) V267A (perch); experiment: as above
[5] = target: GST-Sumo fusion protein of the perch Cx35 C-terminal domain (251-304) I277A (perch); experiment: as above
[6] = target: GST-Sumo fusion protein of the perch Connexin 35 C-terminal domain (amino acids 251-304), wild type (perch); experiment: as above; remark: listed apart in the source
[7] = target: GST-Sumo fusion protein of the perch Cx35 C-terminal domain (251-304) V270A, Q271A (perch); experiment: as above

Kd [1]: 1.43 µM
reduction of Neurobiotin tracer coupling by 5 µM ionomycin in transiently transfected HeLa cells (full-length untagged Cx35 wild type in the cells) [2]: 67%
Kd [3]: 2.46 µM
Kd [4]: 5.39 µM
Kd [5]: 1.26 µM
Kd [6]: 1.38 µM
Kd [7]: 1.19 µM
Substance: calmodulin (from UniProt P0DP23 1-149) (natural protein)
